B1: FIXa variant K293A/R338A/R403A (protein)
chain 1: YNSGKLEEFVQGNLERECMEEKCSFEEAREVFENTERTTEFWKQYVDGDQCESNPCLNGGSCKDDINSYECWCPFGFEGKNCELDVTCNIKNGRCEQFCKNSADNKVVCSCTEGYRLAENQKSCEPAVPFPCGRVSVSQTSKLTR
chain 2: VVGGEDAKPGQFPWQVVLNGKVDAFCGGSIVNEKWIVTAAHCVETGVKITVVAGEHNIEETEHTEQKRNVIRIIPHHNYNAAINKYNHDIALLELDEPLVLNSYVTPICIADAEYTNIFLKFGSGYVSGWGRVFHKGRSALVLQYLRVPLVDRATCLASTKFTIYNNMFCAGFHEGGRDSCQGDSGGPHVTEVEGTSFLTGIISWGEECAMKGKYGIYTKVSAYVNWIKEKTKLT
B2: FIXa variant Y155F/R338E/R403E/E410N (protein)
chain 1: YNSGKLEEFVQGNLERECMEEKCSFEEAREVFENTERTTEFWKQYVDGDQCESNPCLNGGSCKDDINSYECWCPFGFEGKNCELDVTCNIKNGRCEQFCKNSADNKVVCSCTEGYRLAENQKSCEPAVPFPCGRVSVSQTSKLTR
chain 2: VVGGEDAKPGQFPWQVVLNGKVDAFCGGSIVNEKWIVTAAHCVETGVKITVVAGEHNIEETEHTEQKRNVIRIIPHHNYNAAINKYNHDIALLELDEPLVLNSYVTPICIADKEYTNIFLKFGSGYVSGWGRVFHKGRSALVLQYLRVPLVDRATCLESTKFTIYNNMFCAGFHEGGRDSCQGDSGGPHVTEVEGTSFLTGIISWGEECAMKGKYGIYTKVSEYVNWIKNKTKLT
B3: FIXa variant R318Y/R338E/R403E (protein)
chain 1: YNSGKLEEFVQGNLERECMEEKCSFEEAREVFENTERTTEFWKQYVDGDQCESNPCLNGGSCKDDINSYECWCPFGFEGKNCELDVTCNIKNGRCEQFCKNSADNKVVCSCTEGYRLAENQKSCEPAVPFPCGRVSVSQTSKLTR
chain 2: VVGGEDAKPGQFPWQVVLNGKVDAFCGGSIVNEKWIVTAAHCVETGVKITVVAGEHNIEETEHTEQKRNVIRIIPHHNYNAAINKYNHDIALLELDEPLVLNSYVTPICIADKEYTNIFLKFGSGYVSGWGRVFHKGYSALVLQYLRVPLVDRATCLESTKFTIYNNMFCAGFHEGGRDSCQGDSGGPHVTEVEGTSFLTGIISWGEECAMKGKYGIYTKVSEYVNWIKEKTKLT
B4: FIXa variant R338E/R403E/E410N (protein)
chain 1: YNSGKLEEFVQGNLERECMEEKCSFEEAREVFENTERTTEFWKQYVDGDQCESNPCLNGGSCKDDINSYECWCPFGFEGKNCELDVTCNIKNGRCEQFCKNSADNKVVCSCTEGYRLAENQKSCEPAVPFPCGRVSVSQTSKLTR
chain 2: VVGGEDAKPGQFPWQVVLNGKVDAFCGGSIVNEKWIVTAAHCVETGVKITVVAGEHNIEETEHTEQKRNVIRIIPHHNYNAAINKYNHDIALLELDEPLVLNSYVTPICIADKEYTNIFLKFGSGYVSGWGRVFHKGRSALVLQYLRVPLVDRATCLESTKFTIYNNMFCAGFHEGGRDSCQGDSGGPHVTEVEGTSFLTGIISWGEECAMKGKYGIYTKVSEYVNWIKNKTKLT
B5: FIXa variant K293E/R338E/R403E (protein)
chain 1: YNSGKLEEFVQGNLERECMEEKCSFEEAREVFENTERTTEFWKQYVDGDQCESNPCLNGGSCKDDINSYECWCPFGFEGKNCELDVTCNIKNGRCEQFCKNSADNKVVCSCTEGYRLAENQKSCEPAVPFPCGRVSVSQTSKLTR
chain 2: VVGGEDAKPGQFPWQVVLNGKVDAFCGGSIVNEKWIVTAAHCVETGVKITVVAGEHNIEETEHTEQKRNVIRIIPHHNYNAAINKYNHDIALLELDEPLVLNSYVTPICIADEEYTNIFLKFGSGYVSGWGRVFHKGRSALVLQYLRVPLVDRATCLESTKFTIYNNMFCAGFHEGGRDSCQGDSGGPHVTEVEGTSFLTGIISWGEECAMKGKYGIYTKVSEYVNWIKEKTKLT

By kcat/KM is commonly meant the turnover number divided by the Michaelis constant.

This series deals with Factor X (FX), P00742.
Sequence of Factor X (FX), P00742 (P00742 whole entry, looked up): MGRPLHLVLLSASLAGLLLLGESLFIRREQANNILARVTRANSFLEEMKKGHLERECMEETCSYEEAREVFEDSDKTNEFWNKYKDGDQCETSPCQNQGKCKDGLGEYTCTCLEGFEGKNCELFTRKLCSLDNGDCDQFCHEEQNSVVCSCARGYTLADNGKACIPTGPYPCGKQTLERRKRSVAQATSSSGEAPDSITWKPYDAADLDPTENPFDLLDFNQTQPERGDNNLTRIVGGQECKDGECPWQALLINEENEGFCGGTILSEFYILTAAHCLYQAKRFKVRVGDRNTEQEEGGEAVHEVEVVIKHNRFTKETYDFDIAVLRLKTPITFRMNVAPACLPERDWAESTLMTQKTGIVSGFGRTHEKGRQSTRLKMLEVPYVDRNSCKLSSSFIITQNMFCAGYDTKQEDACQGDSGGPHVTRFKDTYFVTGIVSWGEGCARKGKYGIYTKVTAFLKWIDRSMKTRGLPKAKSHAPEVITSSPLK
As for B1, the “% of WT kcat/KM” value turned out to be 53% and the kcat/KM turned out to be 2.5e+07 M⁻¹ s⁻¹.
For B2, in that order: 401% and 1.8e+08 M⁻¹ s⁻¹.
B3: the “% of WT kcat/KM” value amounted to 134% and the kcat/KM was found to be 6.2e+07 M⁻¹ s⁻¹.
For B4, the “% of WT kcat/KM” value worked out at 411% and the kcat/KM was 1.9e+08 M⁻¹ s⁻¹.
For B5, in that order: 36% and 1.7e+07 M⁻¹ s⁻¹.

Values taken from patent publication US20210238260.
